Test results taken from publication PMC3711486.

Molecular target: unlabeled actin filaments (chicken skeletal muscle actin) (chicken) (UniProt P68139)
Test: other fluorescence titration

Q: “S. pombe Arp2/3 complex labeled with pyrene (pyrenyl-Arp2/3 complex) (from UniProt Q9UUJ1 1-390; O14241 1-317; Q92352 1-168)” was tested. Which KDR with filaments 10% saturated with cofilin did it give?
A: 0.66 µM

Q: What about the KDR with filaments 20% saturated with cofilin of the same substance?
A: 0.87 µM

Q: And the KDR with filaments 30% saturated with cofilin?
A: 1.5 µM

Q: And the KDR with filaments 45% saturated with cofilin?
A: 2.5 µM

Q: And the percent of Arp2/3 complex bound, filaments more than 80% saturated with cofilin?
A: 5%
